Laboratory results from PMC9482650, “Quantitative fragmentomics allow affinity mapping of interactomes” (Nature Communications, 2022).

Assays:
Assay in all cases: holdup assay
Design in all cases: key: below the threshold = too weak to quantify, mostly under pKd 3.1 to 4
Conditions in all cases: plain residues with an end cap or a label only (N-terminal biotin on a linker: ado-ado)
MAGI1_1, Q96QZ7 = target: MAGI1_1, Q96QZ7
DVL3, Q92997 = target: T1, DVL3, Q92997
T1 sequence (Q92997 244-331, limits assumed, looked up): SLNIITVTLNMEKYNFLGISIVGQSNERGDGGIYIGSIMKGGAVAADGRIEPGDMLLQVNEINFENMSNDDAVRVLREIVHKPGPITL

GORASP2, Q9H8Y8 = target: GORASP2, Q9H8Y8
DFNB31_3, Q9P202 = target: T2, DFNB31_3, Q9P202
T2 sequence (Q9P202 811-907, limits assumed, looked up): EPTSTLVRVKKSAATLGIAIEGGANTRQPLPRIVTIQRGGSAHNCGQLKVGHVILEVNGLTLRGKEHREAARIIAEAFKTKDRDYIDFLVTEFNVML

RADIL, Q96JH8 = target: T3, RADIL, Q96JH8
T3 sequence (Q96JH8 971-1071, limits assumed, looked up): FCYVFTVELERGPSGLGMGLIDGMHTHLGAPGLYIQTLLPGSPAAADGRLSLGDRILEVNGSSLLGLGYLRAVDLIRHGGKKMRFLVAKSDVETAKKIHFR

NHERF4_2, Q86UT5 = target: NHERF4_2, Q86UT5
Sequence of NHERF4_2, Q86UT5 (Q86UT5 220-308): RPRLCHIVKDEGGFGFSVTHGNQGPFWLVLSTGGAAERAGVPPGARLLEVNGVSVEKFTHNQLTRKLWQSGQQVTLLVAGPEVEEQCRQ

GORASP1, Q9BQQ3 = target: GORASP1, Q9BQQ3
Sequence of GORASP1, Q9BQQ3 (Q9BQQ3 1-208): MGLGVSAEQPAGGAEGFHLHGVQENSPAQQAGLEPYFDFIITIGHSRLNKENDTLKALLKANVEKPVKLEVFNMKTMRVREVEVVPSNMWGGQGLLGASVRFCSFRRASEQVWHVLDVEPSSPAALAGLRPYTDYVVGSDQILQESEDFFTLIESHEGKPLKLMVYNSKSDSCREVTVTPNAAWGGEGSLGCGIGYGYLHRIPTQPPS

Inadl_10, Q8NI35 = target: Inadl_10, Q8NI35
Sequence of Inadl_10, Q8NI35 (Q8NI35 1673-1763): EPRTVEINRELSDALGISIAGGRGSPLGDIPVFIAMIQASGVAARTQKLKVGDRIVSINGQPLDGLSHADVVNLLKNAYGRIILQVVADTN

PDZRN3_1, Q9UPQ7 = target: T4, PDZRN3_1, Q9UPQ7
T4 sequence (Q9UPQ7 244-349, limits assumed, looked up): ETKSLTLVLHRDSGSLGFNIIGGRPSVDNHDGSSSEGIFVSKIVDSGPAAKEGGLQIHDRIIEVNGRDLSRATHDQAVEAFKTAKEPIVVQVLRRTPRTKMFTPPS

GIPC2, Q8TF65 = target: GIPC2, Q8TF65
Sequence of GIPC2, Q8TF65 (Q8TF65 112-203): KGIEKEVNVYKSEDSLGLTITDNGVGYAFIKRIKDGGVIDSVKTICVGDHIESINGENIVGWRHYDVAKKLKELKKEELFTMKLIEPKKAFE

LIN7A, O14910 = target: T5, LIN7A, O14910
T5 sequence (O14910 103-200, limits assumed, looked up): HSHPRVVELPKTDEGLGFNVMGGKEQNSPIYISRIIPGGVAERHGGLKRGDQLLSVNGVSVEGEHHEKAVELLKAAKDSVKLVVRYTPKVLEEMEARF

DLG4_3, P78352 = target: DLG4_3, P78352
Sequence of DLG4_3, P78352 (P78352 306-403): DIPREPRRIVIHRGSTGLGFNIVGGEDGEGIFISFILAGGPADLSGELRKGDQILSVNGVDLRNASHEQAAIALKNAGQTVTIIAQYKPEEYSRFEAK

DLG4_2, P78352 = target: DLG4_2, P78352
Sequence of DLG4_2, P78352 (P78352 155-259): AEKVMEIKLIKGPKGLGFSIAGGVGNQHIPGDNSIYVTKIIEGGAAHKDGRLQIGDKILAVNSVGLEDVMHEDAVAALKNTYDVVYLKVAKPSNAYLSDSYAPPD

RAPGEF6, Q8TEU7 = target: T6, RAPGEF6, Q8TEU7
T6 sequence (Q8TEU7 525-625, limits assumed, looked up): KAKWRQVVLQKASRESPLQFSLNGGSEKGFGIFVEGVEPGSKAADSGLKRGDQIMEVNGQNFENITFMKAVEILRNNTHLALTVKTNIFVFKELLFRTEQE

NHERF4_4, Q86UT5 = target: NHERF4_4, Q86UT5
Sequence of NHERF4_4, Q86UT5 (Q86UT5 464-550): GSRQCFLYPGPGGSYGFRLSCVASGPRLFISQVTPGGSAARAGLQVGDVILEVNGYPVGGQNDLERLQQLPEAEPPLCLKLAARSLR

HTRA1, Q92743 = target: HTRA1, Q92743
Sequence of HTRA1, Q92743 (Q92743 360-477): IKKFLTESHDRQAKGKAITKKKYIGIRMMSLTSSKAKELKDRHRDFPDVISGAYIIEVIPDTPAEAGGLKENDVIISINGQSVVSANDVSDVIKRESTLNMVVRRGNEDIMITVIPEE

RHPN1, Q8TCX5 = target: T7, RHPN1, Q8TCX5
T7 sequence (Q8TCX5 508-602, limits assumed, looked up): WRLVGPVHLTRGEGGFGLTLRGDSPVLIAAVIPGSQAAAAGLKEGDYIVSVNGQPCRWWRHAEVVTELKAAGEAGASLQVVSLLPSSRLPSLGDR

GRIP1_2, Q9Y3R0 = target: T8, GRIP1_2, Q9Y3R0
T8 sequence (Q9Y3R0 145-248, limits assumed, looked up): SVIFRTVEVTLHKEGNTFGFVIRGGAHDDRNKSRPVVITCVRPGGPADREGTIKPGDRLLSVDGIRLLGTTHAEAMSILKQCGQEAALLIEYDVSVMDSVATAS

SCRIB_1, Q14160 = target: SCRIB_1, Q14160
Sequence of SCRIB_1, Q14160 (Q14160 718-814): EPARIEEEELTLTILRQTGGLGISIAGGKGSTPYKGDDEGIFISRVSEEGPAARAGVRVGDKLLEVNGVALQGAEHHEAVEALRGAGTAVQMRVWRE

GRIP1_3, Q9Y3R0 = target: T9, GRIP1_3, Q9Y3R0
T9 sequence (Q9Y3R0 247-346, limits assumed, looked up): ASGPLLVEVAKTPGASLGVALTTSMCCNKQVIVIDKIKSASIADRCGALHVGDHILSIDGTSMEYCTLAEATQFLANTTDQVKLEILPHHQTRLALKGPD

LNX1_1, Q8TBB1 = target: LNX1_1, Q8TBB1
Sequence of LNX1_1, Q8TBB1 (Q8TBB1 261-371): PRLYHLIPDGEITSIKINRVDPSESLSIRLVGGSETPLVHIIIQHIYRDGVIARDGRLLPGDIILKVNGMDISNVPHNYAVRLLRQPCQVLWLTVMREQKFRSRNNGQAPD

LNX1_3, Q8TBB1 = target: LNX1_3, Q8TBB1
Sequence of LNX1_3, Q8TBB1 (Q8TBB1 500-596): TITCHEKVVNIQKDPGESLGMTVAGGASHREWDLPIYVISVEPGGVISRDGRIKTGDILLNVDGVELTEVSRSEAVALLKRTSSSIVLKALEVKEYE

GRIP1_5, Q9Y3R0 = target: T10, GRIP1_5, Q9Y3R0
T10 sequence (Q9Y3R0 568-668, limits assumed, looked up): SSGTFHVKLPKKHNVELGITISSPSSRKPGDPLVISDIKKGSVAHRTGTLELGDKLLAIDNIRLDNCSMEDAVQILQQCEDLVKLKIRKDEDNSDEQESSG

PDZRN4_1, Q6ZMN7 = target: PDZRN4_1, Q6ZMN7
Sequence of PDZRN4_1, Q6ZMN7 (Q6ZMN7 213-318): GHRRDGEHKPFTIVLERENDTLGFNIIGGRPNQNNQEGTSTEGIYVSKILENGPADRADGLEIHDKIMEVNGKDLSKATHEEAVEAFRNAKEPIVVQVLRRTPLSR

PDLIM1, O00151 = target: PDLIM1, O00151
Sequence of PDLIM1, O00151 (O00151 1-87): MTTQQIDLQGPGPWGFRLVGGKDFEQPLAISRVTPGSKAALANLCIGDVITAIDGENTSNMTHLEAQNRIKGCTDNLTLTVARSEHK

TJP2_1, Q9UDY2 = target: TJP2_1, Q9UDY2
Sequence of TJP2_1, Q9UDY2 (Q9UDY2 24-128): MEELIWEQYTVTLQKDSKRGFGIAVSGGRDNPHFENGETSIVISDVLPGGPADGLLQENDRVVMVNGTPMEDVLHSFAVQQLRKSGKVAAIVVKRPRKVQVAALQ

MAST2, Q6P0Q8 = target: MAST2, Q6P0Q8
Sequence of MAST2, Q6P0Q8 (Q6P0Q8 1099-1202): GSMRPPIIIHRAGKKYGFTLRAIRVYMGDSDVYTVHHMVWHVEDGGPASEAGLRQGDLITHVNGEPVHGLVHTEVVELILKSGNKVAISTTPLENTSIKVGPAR

Sequence of MAGI1_1, Q96QZ7 (Q96QZ7 1-106): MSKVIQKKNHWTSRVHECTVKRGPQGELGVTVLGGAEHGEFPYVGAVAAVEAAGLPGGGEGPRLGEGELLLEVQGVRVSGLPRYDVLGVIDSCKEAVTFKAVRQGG

GNSVLKSTQF [SLC22A12, Q96S37]
pKd (MAGI1_1, Q96QZ7): below the threshold
pKd (DVL3, Q92997): below the threshold
pKd (GORASP2, Q9H8Y8): below the threshold
pKd (DFNB31_3, Q9P202): 3.56
pKd (RADIL, Q96JH8): below the threshold
pKd (NHERF4_2, Q86UT5): below the threshold
pKd (GORASP1, Q9BQQ3): below the threshold
pKd (Inadl_10, Q8NI35): below the threshold
pKd (PDZRN3_1, Q9UPQ7): below the threshold
pKd (GIPC2, Q8TF65): below the threshold
pKd (LIN7A, O14910): below the threshold
pKd (DLG4_3, P78352): below the threshold
pKd (DLG4_2, P78352): below the threshold
pKd (RAPGEF6, Q8TEU7): below the threshold
pKd (NHERF4_4, Q86UT5): below the threshold
pKd (HTRA1, Q92743): below the threshold
pKd (RHPN1, Q8TCX5): below the threshold
pKd (GRIP1_2, Q9Y3R0): below the threshold
pKd (SCRIB_1, Q14160): below the threshold
pKd (GRIP1_3, Q9Y3R0): below the threshold
pKd (LNX1_1, Q8TBB1): below the threshold
pKd (LNX1_3, Q8TBB1): below the threshold
pKd (GRIP1_5, Q9Y3R0): below the threshold
pKd (PDZRN4_1, Q6ZMN7): below the threshold
pKd (PDLIM1, O00151): below the threshold
pKd (TJP2_1, Q9UDY2): below the threshold
pKd (MAST2, Q6P0Q8): 4.77

VRNLPESEEL [MYOZ3, Q8TDC0]
pKd (MAGI1_1, Q96QZ7): below the threshold
pKd (DVL3, Q92997): below the threshold
pKd (GORASP2, Q9H8Y8): below the threshold
pKd (DFNB31_3, Q9P202): below the threshold
pKd (RADIL, Q96JH8): below the threshold
pKd (NHERF4_2, Q86UT5): below the threshold
pKd (GORASP1, Q9BQQ3): below the threshold
pKd (Inadl_10, Q8NI35): below the threshold
pKd (PDZRN3_1, Q9UPQ7): below the threshold
pKd (GIPC2, Q8TF65): below the threshold
pKd (LIN7A, O14910): below the threshold
pKd (DLG4_3, P78352): below the threshold
pKd (DLG4_2, P78352): below the threshold
pKd (RAPGEF6, Q8TEU7): below the threshold
pKd (NHERF4_4, Q86UT5): 3.85
pKd (HTRA1, Q92743): 3.84
pKd (RHPN1, Q8TCX5): below the threshold
pKd (GRIP1_2, Q9Y3R0): below the threshold
pKd (SCRIB_1, Q14160): below the threshold
pKd (GRIP1_3, Q9Y3R0): below the threshold
pKd (LNX1_1, Q8TBB1): below the threshold
pKd (LNX1_3, Q8TBB1): below the threshold
pKd (GRIP1_5, Q9Y3R0): below the threshold
pKd (PDZRN4_1, Q6ZMN7): below the threshold
pKd (PDLIM1, O00151): 5.23
pKd (TJP2_1, Q9UDY2): below the threshold
pKd (MAST2, Q6P0Q8): 4.74
